B1: CPEB3 Ribozyme (parent)
chain: GGGGGCCACAGCAGAAGCGUUCACGUCGCGGCCCCUGUCAGAUUCUGGUGAAUCUGCGAAUUCUGCUGU

Variants of: B1
Assay: self-cleavage, relative activity (ratio to wild type); higher = more cleavage; co-transcriptional

Variant	self-cleavage
G2A G14A	0.0649
G2A G14C	0.075
G2A G14U	0.0746
G2A G17A	0.0268
G2A G17U	0.0353
G2A G19A	0.0283
G2A G19U	0.0445
G2A G25C	0.0386
G2A G25U	0.0625
G2A G28A	0.0492
G2A G28U	0.0733
G2A G30A	0.0606
G2A G30C	0.0605
G2A G30U	0.058
G2A G31A	0.0613
G2A G37A	0.0498
G2A G37C	0.0177
G2A G37U	0.0408
G2A G41A	0.0631
G2A G41U	0.0833
G2A G47A	0.189
G2A G47C	0.176
G2A G48A	0.213
G2A G48C	0.227

Variant	self-cleavage
G2A G48U	0.215
G2A G50A	0.177
G2A G50C	0.154
G2A G50U	0.173
G2A G56A	0.1
G2A G56C	0.0906
G2A G56U	0.0991
G2A G58A	0.0846
G2A G58C	0.106
G2A G58U	0.221
G2A G65C	0.122
G2A G65U	0.067
G2A G68A	0.445
G2A G68C	0.335
G2A U20G	0.0568
G2A U21A	0.114
G2A U21C	0.0698
G2A U21G	0.0545
G2A U26A	0.11
G2A U26C	0.114
G2A U26G	0.0691
G2A U36A	0.0357
G2A U36C	0.129
G2A U36G	0.209

Variant	self-cleavage
G2A U38A	0.134
G2A U38C	0.117
G2A U43A	0.139
G2A U43C	0.123
G2A U43G	0.144
G2A U44C	0.123
G2A U46A	0.202
G2A U46C	0.13
G2A U46G	0.135
G2A U49C	0.21
G2A U49G	0.149
G2A U53G	0.109
G2A U55A	0.109
G2A U55C	0.0545
G2A U55G	0.0739
G2A U61C	0.0999
G2A U62A	0.11
G2A U62C	0.146
G2A U62G	0.129
G2A U64A	0.115
G2A U64C	0.0804
G2A U64G	0.0844
G2A U67A	0.281
G2A U67C	0.242

Variant	self-cleavage
G2A U67G	0.167
G2A U69A	0.256
G2A U69G	0.335
G2C	0.0678
G2C A8C	0.039
G2C A8U	0.0675
G2C A10C	0.0373
G2C A10G	0.0728
G2C A10U	0.0719
G2C A13G	0.084
G2C A13U	0.0221
G2C A15C	0.0125
G2C A15G	0.0305
G2C A15U	0.0423
G2C A16C	0.0354
G2C A16G	0.0604
G2C A16U	0.0422
G2C A23C	0.0568
G2C A40C	0.0316
G2C A40G	0.0911
G2C A40U	0.0469
G2C A42G	0.0702
G2C A51C	0.0374
G2C A51G	0.0786

Variant	self-cleavage
G2C A52C	0.0825
G2C A59C	0.027
G2C A59U	0.0322
G2C A60C	0.0369
G2C A60G	0.0533
G2C A60U	0.0243
G2C C6A	0.0465
G2C C6G	0
G2C C6U	0.0751
G2C C7A	0.0323
G2C C7U	0.0258
G2C C9A	0.0938
G2C C9G	0.123
G2C C12G	0.0599
G2C C12U	0.065
G2C C18A	0.0265
G2C C18U	0.0354
G2C C22A	0.0368
G2C C22U	0.0697
G2C C24A	0.0707
G2C C24G	0.0232
G2C C27A	0.0594
G2C C27G	0.106
G2C C29G	0.0119

Variant	self-cleavage
G2C C29U	0.0639
G2C C32A	0.00762
G2C C32G	0.0507
G2C C32U	0.0415
G2C C33A	0.0155
G2C C33G	0.0592
G2C C33U	0.0465
G2C C34A	0.0678
G2C C34U	0.0646
G2C C35A	0.0223
G2C C35G	0.313
G2C C39U	0.0154
G2C C45A	0.0472
G2C C45G	0.0374
G2C C45U	0.0464
G2C C54A	0.0299
G2C C54U	0.0485
G2C C57A	0.036
G2C C57G	0.0289
G2C C57U	0.054
G2C C63G	0.0678
G2C C66A	0.052
G2C C66U	0.0685
G2C G3A	0.055

Variant	self-cleavage
G2C G3C	0.0247
G2C G4A	0.0684
G2C G4C	0.0427
G2C G4U	0.0417
G2C G5A	0.0455
G2C G11A	0.0352
G2C G11C	0.0455
G2C G11U	0.0219
G2C G14A	0.0455
G2C G14C	0.0627
G2C G17A	0.0551
G2C G17C	0.0475
G2C G19C	0.0249
G2C G19U	0.0175
G2C G25C	0.0473
G2C G25U	0.0456
G2C G28A	0.0369
G2C G28C	0.0457
G2C G28U	0.0543
G2C G30A	0.0388
G2C G30U	0.0301
G2C G31A	0.0545
G2C G31C	0.0401

— the RNAGym collection of RNA variant scans (doi:10.7554/elife.80360)
